Consider 2 molecules from publication PMC12056208.

Where two headings read alike, the source gives them in different places.

Series [1] has as its target T1, Ku70;Ku80;DNA polymerase mu (Homo sapiens?;Homo sapiens?;Homo …, UniProt P12956;P13010;Q9NP87 1-609;1-732;1-494, ||). The note with it: protein: recombinant;recombinant;recombinant; copies: 1;1;1; two duplexes: S3/S6 13 bp with 3' overhang GC on S3; S5/S4 11 bp with 3' overhang AGC on S5; GC microhomology between overhangs.
Series [2] addresses Ku70;Ku80;DNA polymerase lambda (Homo sapiens?;Homo sapiens?;Homo …, UniProt P12956;P13010;Q9UGP5 1-609;1-732;1-575, ||). The following applies: protein: recombinant;recombinant;recombinant; copies: 1;1;1; label: biotin; fork: 35 bp duplex (1:21-55 with 2:1-35), 5' tail 20 nt on strand 1, 3' tail 7 nt on strand 2; the tail ends (1:1-7, 2:36-42) are also complementary.
The target of the next series is Ku70;Ku80 (Homo sapiens?;Homo sapiens?, UniProt P12956;P13010 1-609;1-732, |). The following applies: protein: recombinant;recombinant; copies: 1;1; label: biotin; fork: 35 bp duplex (1:21-55 with 2:1-35), 5' tail 20 nt on strand 1, 3' tail 7 nt on strand 2; the tail ends (1:1-7, 2:36-42) are also complementary.
In series [3] the target is T1, Ku70;Ku80;DNA polymerase mu. The following applies: protein: recombinant;recombinant;recombinant; copies: 1;1;1; label: biotin; fork: 35 bp duplex (1:21-55 with 2:1-35), 5' tail 20 nt on strand 1, 3' tail 7 nt on strand 2; the tail ends (1:1-7, 2:36-42) are also complementary.

T1 sequence (P12956 whole entry, chain 1 of 3): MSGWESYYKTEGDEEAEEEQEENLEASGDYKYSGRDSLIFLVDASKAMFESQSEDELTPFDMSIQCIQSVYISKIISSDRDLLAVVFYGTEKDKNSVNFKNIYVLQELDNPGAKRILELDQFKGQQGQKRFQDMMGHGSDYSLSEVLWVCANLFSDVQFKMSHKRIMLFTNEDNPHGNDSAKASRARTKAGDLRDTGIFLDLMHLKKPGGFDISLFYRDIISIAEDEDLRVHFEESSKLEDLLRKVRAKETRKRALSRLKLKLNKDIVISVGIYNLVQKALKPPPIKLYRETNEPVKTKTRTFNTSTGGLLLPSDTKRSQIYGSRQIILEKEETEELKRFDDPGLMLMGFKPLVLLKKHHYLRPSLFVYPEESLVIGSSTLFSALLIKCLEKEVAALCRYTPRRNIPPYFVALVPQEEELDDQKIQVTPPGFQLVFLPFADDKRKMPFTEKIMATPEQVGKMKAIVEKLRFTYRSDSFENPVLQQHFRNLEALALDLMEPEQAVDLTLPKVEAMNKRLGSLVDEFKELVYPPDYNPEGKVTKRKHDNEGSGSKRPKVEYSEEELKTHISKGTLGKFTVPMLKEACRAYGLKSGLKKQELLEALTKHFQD
T1 sequence (P13010 whole entry, chain 2 of 3): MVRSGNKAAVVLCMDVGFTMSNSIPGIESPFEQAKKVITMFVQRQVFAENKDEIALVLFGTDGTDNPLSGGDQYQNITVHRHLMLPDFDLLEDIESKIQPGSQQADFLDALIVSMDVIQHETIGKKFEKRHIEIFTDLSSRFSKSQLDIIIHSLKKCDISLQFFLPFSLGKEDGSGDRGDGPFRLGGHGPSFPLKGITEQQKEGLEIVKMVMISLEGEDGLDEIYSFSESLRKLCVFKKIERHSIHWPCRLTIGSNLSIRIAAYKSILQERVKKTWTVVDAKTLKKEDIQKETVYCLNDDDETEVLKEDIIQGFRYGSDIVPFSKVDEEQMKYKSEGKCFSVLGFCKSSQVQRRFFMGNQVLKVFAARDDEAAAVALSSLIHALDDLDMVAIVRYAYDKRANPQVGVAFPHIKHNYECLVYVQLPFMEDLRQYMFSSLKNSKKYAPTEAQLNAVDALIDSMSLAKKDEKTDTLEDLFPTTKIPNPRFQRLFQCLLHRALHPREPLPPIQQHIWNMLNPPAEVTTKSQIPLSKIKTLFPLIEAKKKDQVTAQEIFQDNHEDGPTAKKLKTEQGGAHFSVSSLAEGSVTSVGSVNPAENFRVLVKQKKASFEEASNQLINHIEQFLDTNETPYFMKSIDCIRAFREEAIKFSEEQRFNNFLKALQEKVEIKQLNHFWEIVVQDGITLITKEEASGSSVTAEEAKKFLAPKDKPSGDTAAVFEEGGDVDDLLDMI
T1 sequence (Q9NP87 whole entry, chain 3 of 3): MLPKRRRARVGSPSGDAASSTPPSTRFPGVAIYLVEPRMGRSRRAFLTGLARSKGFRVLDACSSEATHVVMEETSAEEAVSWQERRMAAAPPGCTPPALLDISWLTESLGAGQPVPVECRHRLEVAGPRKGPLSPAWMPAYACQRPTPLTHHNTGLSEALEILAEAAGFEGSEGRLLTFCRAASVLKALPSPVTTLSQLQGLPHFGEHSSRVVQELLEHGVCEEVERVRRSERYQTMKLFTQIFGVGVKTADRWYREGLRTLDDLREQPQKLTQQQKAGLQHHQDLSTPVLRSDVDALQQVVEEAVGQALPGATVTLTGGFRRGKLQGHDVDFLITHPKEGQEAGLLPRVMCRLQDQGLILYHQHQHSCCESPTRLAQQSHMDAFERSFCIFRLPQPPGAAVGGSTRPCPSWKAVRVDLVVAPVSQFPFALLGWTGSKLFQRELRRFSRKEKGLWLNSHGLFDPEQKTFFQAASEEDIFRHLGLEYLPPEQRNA
Ku70;Ku80, sequence (P12956 whole entry, chain 1 of 2): as the sequence (P12956 whole entry, chain 1 of 3) above
Ku70;Ku80, sequence (P13010 whole entry, chain 2 of 2): as the sequence (P13010 whole entry, chain 2 of 3) above
Ku70;Ku80;DNA polymerase lambda, sequence (P12956 whole entry, chain 1 of 3): as the sequence (P12956 whole entry, chain 1 of 3) above
Ku70;Ku80;DNA polymerase lambda, sequence (P13010 whole entry, chain 2 of 3): as the sequence (P13010 whole entry, chain 2 of 3) above
Ku70;Ku80;DNA polymerase lambda, sequence (Q9UGP5 whole entry, chain 3 of 3): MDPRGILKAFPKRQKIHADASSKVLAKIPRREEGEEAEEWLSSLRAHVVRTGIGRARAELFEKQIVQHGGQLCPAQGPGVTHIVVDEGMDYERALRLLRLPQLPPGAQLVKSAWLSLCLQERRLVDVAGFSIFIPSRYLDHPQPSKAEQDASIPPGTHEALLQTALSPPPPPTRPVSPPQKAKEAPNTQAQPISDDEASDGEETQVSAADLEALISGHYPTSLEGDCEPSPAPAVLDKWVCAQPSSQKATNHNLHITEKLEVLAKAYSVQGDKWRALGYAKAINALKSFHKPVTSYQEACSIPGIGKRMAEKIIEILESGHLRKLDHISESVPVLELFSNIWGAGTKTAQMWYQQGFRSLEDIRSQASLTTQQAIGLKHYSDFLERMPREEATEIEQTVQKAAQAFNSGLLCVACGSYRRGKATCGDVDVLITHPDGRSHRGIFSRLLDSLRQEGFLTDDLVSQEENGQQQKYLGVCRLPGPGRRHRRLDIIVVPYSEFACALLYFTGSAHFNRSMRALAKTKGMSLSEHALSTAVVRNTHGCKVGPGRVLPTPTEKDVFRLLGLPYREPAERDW

B1: Microhomology DNA for Pol mu (dsDNA)
DNA 1: GGTGCAGCACAGTGC
DNA 2: ACTGTGCTGCACC
DNA 3: GACTGCACGGCAGC
DNA 4: GCCGTGCAGTC
For B1, in series [1], the binding result is “binds”.

B2: Y-shaped 42-55 DNA (dsDNA)
DNA 1: CGCGCCCAGCTTTCCCAGCTAATAAACTAAAAACTATTATTATGGCCGCACGCGT
DNA 2: ACGCGTGCGGCCATAATAATAGTTTTTAGTTTATTGGGCGCG
modifications: 5' biotin on strand 1
Turning to B2, the binding result (in series [2]; with Ku70;Ku80; in series [3]) was “binds” throughout.
